T1: POLA1^FL (subunit of PP^FL) (human, UniProt P09884 1-1462)
T1 construct: the POLA1 chain of m3; Always present with POLA2, PRIM1 and PRIM2; written alone for subunit-to-subunit cross-links; source: Tni insect cells (baculovirus), purified as part of PP^FL
T1 sequence (looked up): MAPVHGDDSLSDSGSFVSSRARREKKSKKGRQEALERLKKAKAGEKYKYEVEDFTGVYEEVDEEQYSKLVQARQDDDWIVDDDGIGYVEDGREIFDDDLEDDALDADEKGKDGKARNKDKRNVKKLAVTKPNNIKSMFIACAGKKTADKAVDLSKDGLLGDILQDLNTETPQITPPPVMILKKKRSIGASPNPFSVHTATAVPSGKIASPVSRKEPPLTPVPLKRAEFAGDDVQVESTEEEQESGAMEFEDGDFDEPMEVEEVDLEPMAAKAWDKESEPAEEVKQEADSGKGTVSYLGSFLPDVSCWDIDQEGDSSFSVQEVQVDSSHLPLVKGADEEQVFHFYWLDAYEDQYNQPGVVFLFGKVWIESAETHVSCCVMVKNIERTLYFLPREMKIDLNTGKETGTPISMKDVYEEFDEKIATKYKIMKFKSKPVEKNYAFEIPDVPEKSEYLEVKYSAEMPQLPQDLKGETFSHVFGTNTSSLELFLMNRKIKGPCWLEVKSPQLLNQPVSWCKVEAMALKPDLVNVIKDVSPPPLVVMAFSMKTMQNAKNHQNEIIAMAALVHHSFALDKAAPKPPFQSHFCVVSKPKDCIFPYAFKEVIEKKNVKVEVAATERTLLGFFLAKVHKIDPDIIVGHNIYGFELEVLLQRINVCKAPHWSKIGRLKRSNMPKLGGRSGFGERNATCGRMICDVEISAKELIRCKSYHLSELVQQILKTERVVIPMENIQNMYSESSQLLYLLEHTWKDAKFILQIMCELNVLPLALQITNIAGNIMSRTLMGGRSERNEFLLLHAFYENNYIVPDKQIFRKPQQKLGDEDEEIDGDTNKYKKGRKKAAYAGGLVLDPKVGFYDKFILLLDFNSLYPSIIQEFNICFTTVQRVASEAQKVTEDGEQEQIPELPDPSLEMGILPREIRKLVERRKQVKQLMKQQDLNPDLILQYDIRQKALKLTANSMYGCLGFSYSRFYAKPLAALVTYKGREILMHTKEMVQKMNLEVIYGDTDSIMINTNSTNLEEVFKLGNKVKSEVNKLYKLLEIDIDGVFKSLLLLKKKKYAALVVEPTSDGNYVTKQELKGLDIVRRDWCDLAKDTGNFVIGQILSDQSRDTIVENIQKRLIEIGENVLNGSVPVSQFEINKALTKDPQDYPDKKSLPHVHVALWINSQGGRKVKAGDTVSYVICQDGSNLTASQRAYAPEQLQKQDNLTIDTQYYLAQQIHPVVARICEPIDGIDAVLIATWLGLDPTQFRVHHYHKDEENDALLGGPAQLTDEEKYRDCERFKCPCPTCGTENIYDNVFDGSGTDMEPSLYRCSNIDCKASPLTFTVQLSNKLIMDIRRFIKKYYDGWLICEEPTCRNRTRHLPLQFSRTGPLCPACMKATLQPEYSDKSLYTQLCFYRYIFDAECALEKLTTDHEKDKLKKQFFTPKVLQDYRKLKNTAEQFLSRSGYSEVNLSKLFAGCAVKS

B1: His6-MBP-PreSc-POLA1^N (domain or fragment, human, UniProt P09884 1-339, looked up)
chain: MAPVHGDDSLSDSGSFVSSRARREKKSKKGRQEALERLKKAKAGEKYKYEVEDFTGVYEEVDEEQYSKLVQARQDDDWIVDDDGIGYVEDGREIFDDDLEDDALDADEKGKDGKARNKDKRNVKKLAVTKPNNIKSMFIACAGKKTADKAVDLSKDGLLGDILQDLNTETPQITPPPVMILKKKRSIGASPNPFSVHTATAVPSGKIASPVSRKEPPLTPVPLKRAEFAGDDVQVESTEEEQESGAMEFEDGDFDEPMEVEEVDLEPMAAKAWDKESEPAEEVKQEADSGKGTVSYLGSFLPDVSCWDIDQEGDSSFSVQEVQVDSSHLPLVKGADEEQ
notes: human POLA1 N-terminal region, POLA1^N, 1–339 aa in the methods (1–335 aa in the results); MBP served as a mass label in negative-stain EM; also called MBP-POLA1^N; MBP-tagged POLA1^N; source: Tni insect cells (baculovirus), purified (Ni-NTA, SEC); not shown: His6, N-terminal, kept; MBP, N-terminal, kept
B2: CTC1 (subunit of the CST complex) (natural protein, human)
chain: MAAGRAQVPSSEQAWLEDAQVFIQKTLCPAVKEPNVQLTPLVIDCVKTVWLSQGRNQGSTLPLSYSFVSVQDLKTHQRLPCCSHLSWSSSAYQAWAQEAGPNGNPLPREQLLLLGTLTDLSADLEQECRNGSLYVRDNTGVLSCELIDLDLSWLGHLFLFPRWSYLPPARWNSSGEGHLELWDAPVPVFPLTISPGPVTPIPVLYPESASCLLRLRNKLRGVQRNLAGSLVRLSALVKSKQKAYFILSLGRSHPAVTHVSIIVQVPAQLVWHRALRPGTAYVLTELRVSKIRGQRQHVWMTSQSSRLLLLKPECVQELELELEGPLLEADPKPLPMPSNSEDKKDPESLVRYSRLLSYSGAVTGVLNEPAGLYELDGQLGLCLAYQQFRGLRRVMRPGVCLQLQDVHLLQSVGGGTRRPVLAPCLRGAVLLQSFSRQKPGAHSSRQAYGASLYEQLVWERQLGLPLYLWATKALEELACKLCPHVLRHHQFLQHSSPGSPSLGLQLLAPTLDLLAPPGSPVRNAHNEILEEPHHCPLQKYTRLQTPSSFPTLATLKEEGQRKAWASFDPKALLPLPEASYLPSCQLNRRLAWSWLCLLPSAFCPAQVLLGVLVASSHKGCLQLRDQSGSLPCLLLAKHSQPLSDPRLIGCLVRAERFQLIVERDVRSSFPSWKELSMPGFIQKQQARVYVQFFLADALILPVPRPCLHSATPSTPQTDPTGPEGPHLGQSRLFLLCHKEALMKRNFCVPPGASPEVPKPALSFYVLGSWLGGTQRKEGTGWGLPEPQGNDDNDQKVHLIFFGSSVRWFEFLHPGQVYRLIAPGPATPMLFEKDGSSCISRRPLELAGCASCLTVQDNWTLELESSQDIQDVLDANKSLPESSLTDLLSDNFTDSLVSFSAEILSRTLCEPLVASLWMKLGNTGAMRRCVKLTVALETAECEFPPHLDVYIEDPHLPPSLGLLPGARVHFSQLEKRVSRSHNVYCCFRSSTYVQVLSFPPETTISIPLPHIYLAELLQGGQSPFQATASCHIVSVFSLQLFWVCAYCTSICRQGKCTRLGSTCPTQTAISQAIIRLLVEDGTAEAVVTCRNHHVAAALGLCPREWASLLDFVQVPGRVVLQFAGPGAQLESSARVDEPMTMFLWTLCTSPSVLRPIVLSFELERKPSKIVPLEPPRLQRFQCGELPFLTHVNPRLRLSCLSIRESEYSSSLGILASSC
notes: human CTC1; the CTC1 chain of m1; Always present with STN1 and TEN1; written alone for subunit-to-subunit contacts; source: Tni insect cells (baculovirus), purified as part of CST; not shown: His6, N-terminal, cleaved; MBP, N-terminal, cleaved

What was measured:
Conditions in all cases: both partners purified
[1] = target: T2, CTC1–STN1–TEN1 (CST) complex (human, UniProt Q2NKJ3 1-1217; Q9H668 1-368; Q86WV5 1-123); assay: SEC; purified proteins mixed (PP^FL and CST equimolar; CST with twofold molar excess of His6-MBP-POLA1^N), 1 h at 4 °C, HiLoad Superdex 200 16/600 PG, 20 mM HEPES pH 7.5, 150 mM NaCl, 0.5 mM TCEP, 5% glycerol
T2 construct: human CTC1; human STN1; human TEN1; Expressed from pBIG1a(His6-MBP-PreSc-CTC1/STN1/TEN1); tag removed with rhinovirus 3C protease; source: Tni insect cells (baculovirus), purified (Ni-NTA, 3C protease cleavage, heparin, SEC); not shown: His6, N-terminal, cleaved; MBP, N-terminal, cleaved; copies: + +

[2] = target: B2; assay: cross-linking; CX-MS of the SEC-reconstituted CST–POLA1^N complex with BS3 (0.35–0.75 mM, 25 °C, 30 min), 1 mg/mL
[3] = target: T1, POLA1^FL (subunit of PP^FL); assay: cross-linking; CX-MS of the SEC-reconstituted CST–PP^FL complex with DSS (0.35–0.75 mM, 25 °C, 30 min), 1 mg/mL

T2 sequence (Q9H668 whole entry, chain 2 of 2): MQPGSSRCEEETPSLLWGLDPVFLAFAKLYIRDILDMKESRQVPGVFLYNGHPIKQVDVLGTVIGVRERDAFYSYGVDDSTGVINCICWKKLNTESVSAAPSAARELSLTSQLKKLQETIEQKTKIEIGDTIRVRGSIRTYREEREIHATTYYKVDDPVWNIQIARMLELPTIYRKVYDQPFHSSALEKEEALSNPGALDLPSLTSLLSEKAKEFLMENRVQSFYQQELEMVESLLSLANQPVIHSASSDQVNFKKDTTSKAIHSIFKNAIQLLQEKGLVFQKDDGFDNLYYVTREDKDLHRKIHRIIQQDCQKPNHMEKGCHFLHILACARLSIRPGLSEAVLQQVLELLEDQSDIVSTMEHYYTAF
T2 sequence (Q86WV5 whole entry, chain 3 of 2): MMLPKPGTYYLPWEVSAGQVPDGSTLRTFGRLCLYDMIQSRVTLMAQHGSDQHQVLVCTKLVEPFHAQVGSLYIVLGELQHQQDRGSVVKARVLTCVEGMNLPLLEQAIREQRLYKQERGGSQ

Binder	binding result [1]	binding result [2]	binding result [3]
B1	binds	binds	
B2			binds

— publication PMC9371972, “Cryo-EM structure of the human CST–Polα/primase complex in a recruitment state” (Nature Structural & Molecular Biology, 2022)
